Patent publication US20260069689A1 (Regeneron, published 2026)
Substitutions are numbered along the chain they refer to. “And” between values parts separate entries of the source, which are not always exact repeats. Equal values may be shown once.

B1: mAb14282 (antibody, V domains shown)
VH: QVQLVQSGAEVKKPGASVKVSCKASGYIFTDHYMHWVRQAPGQGLEWMGWINPNSGATNYAQNFQGRVTMTRDTSIITVYMELSRLRSDDTAVYYCARDSSPYMIRYTMDVWGQGTTITVSS
VL: QSALTQPASVSGSPGQSITISCTGTSSDVGSYNLVSWYQQHPGKAPKLMIYELTKRPSGVSNRFSGSKSGNTASLTISGLQAEDEADYYCSSYRGSVTDVVFGGGTKLTVLG
B2: mAb14283 (antibody, V domains shown)
VH: QVQLQESGPGLVKPSGTLSLTCDVSGGSISSNNWWSWVRQRPGKGLQWIGEIYHNENTNYNPSLKSRVIMSIDKSKNQFSLKLTSVTAADTAVYYCARGDVLDWFDPWGQGTLVTVSS
VL: QSALTQPASVSGSPGQSTTISCTGTSSDVGGYNYVSWYQQYPGKAPKLMIYDVTNRPSGVSHRFSGSKSGNTASLTISGLQAEDEADYYCSSYTSSSTVIFGGGTKLTVLG
B3: mAb14284 (antibody, V domains shown)
VH: QITLKESGPTLVKPTQTLTLTCTFSGFSFSTSGVGVGWIRQPPGKTLEWLALIYWDDDKRYSPSLKSRLTITKDTSKNQVVLTMTNMDPVDTATYFCAHHGIPTIFGYWGQGALVTVSS
VL: QSALTQPASVSGSPGQSITISCTGTSSDLGVFNYVSWYQQHPGKAPKLMIYEVTNRPSGVSNRFSGSKSGNTASLTISGLQAEDEADYYCSSYTTSSTVFGGGTKLTVLG
B4: mAb14285 (antibody, V domains shown)
VH: QVQLVQSGAEVKKPGASVKVSCKASGYTFTGYFIHWVRQAPGQGLEWMGWISPISGGTNYAQKFQGRVTVTRDTSITTAYMELSRLTSDDTAVYHCAREGGTWKGDFDYWGQGTLVTVSS
VL: QSALTQPASVSGSPGQSITISCTGTSSDVESYNLVSWYQQHPGKAPKLMIYEGSKRPSGVSNRFSGSKSGNTASLTISGLQAEDEADYYCSSYAGSSTWVFGGGTKLTVLG
B5: mAb14286 (antibody, V domains shown)
VH: QVQLVQSGAEVKKPGASVKVSCKASGYTFTDYFIHWVRQAPGQGLEWMGWINPTSGGTNYAQKFRGRVTMTRDTSISTAYVELSRLRSDDTALYYCARDLPFYSDTKQFDYWGQGTLVTVSS
VL: B2 VL with S13Y, T18I, Y41H, Y51F, T54S, H62N, I77F, V99L, I100V
B6: mAb14289 (antibody, V domains shown)
VH: QVQLVQSGPEVKKPGASVKVSCKASGYTFTSYAISWVRQAPGQGLEWMGWISAYNGNTNYAQKLQGRVTMTTDTFTSTAYMELRSLRSDDTAVYYCAVPADHITFDYWGQGTLVTVSS
VL: EIVLTQSPGTLSLSPGERATLSCRASQSVSSYLAWYQQKPGQAPRLLIHGASSRATGIPDRFSGSGSGTDFTLTISRLEPEDFAVYYCQQYGSSFLTFGGGTKVEIKR
B7: mAb14292 (antibody, V domains shown)
VH: EVQLVESGGGLVQPGGSLRLSCVASGFAFSTYEMNWVRQAPGKGLEWVSYISSSGSTIYYADSVKGRLTISRDNVKNSLYLQMNSLRVEDTAIYYCARDAIRNNDILTDPATFDPWGQGTLVTVSS
VL: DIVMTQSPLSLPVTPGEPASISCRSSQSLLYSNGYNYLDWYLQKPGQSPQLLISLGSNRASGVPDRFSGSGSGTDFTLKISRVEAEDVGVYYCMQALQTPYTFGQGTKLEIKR
B8: mAb14294 (antibody, V domains shown)
VH: EVQLVESGGGLVQPGGSLRLSCAASGFTFSNHWMDWVRQAPGKGLVWVSRINSDGSSTDYADSVRGRFTMSRDNAKNTLYLQMSSLRAEDTAVYYCAREGMIFGAVIIPGWYFDLWGRGALVTVSS
VL: EIVLTQSPGTLSLSPGERATLSCRASQSVSSSQLAWYQQKPGQAPRLLIYGASSRATGIPDRFSGSGSGTDFTLTISRLEPEDFAVYYCQQYDSFGQGTKLEIKR
B9: mAb14312 (antibody, V domains shown)
VH: EVQLVESGGGLVQPGGSLRLSCAASGFTVSRSYMTWVRQAPGKGLEWVSVIFTGGRTDHADSVKGRFTISRHNSKNTLYLQMNSLRTEDTAVYYCARVAIVGATGAFDIWGQGTMVTVSS
VL: QSVLTQPPSVSGAPGQRVTISCTGSSSNIGAGDDVHWYQQLPGTAPKLLIYGNSNRPSGVPDRFSGSKSGTSASLAITGLQAEDEADYYCQSYDSSLSGSVVFGGGTKLTVLG
B10: mAb14313 (antibody, V domains shown)
VH: EVQLVESGGGLVQPGRSLRLSCVASGFTFDDSAMHWVRQPPGKGLEWVSGISWNSGIIGYAESVKGRFIISRDNAKNSLFLHMRGLRPEDTAVYYCARDRLELSYYYYGMDVWGQGTTVTVSS
VL: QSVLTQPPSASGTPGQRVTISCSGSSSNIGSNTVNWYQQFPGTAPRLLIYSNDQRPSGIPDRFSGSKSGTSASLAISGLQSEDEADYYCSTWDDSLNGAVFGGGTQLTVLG
B11: mAb14315 (antibody, V domains shown)
VH: QVQLVQSGAEVKKPGSSVKVSCKASGDTFSTYAINWVRQAPGQGLEWMGRFIHIFGTANYAQKFQGRVTITADESTSTAYMELRSLRSEDTAVYYCARDGVDYGDYRPDYWGQGTLVTVSS
VL: EIVLTQSPGTLSLSPGERATLSCRASQSVSSNYLAWYQQKPGQAPRLLIYGASSRATGIPERFSGSGSGTDFTLTISRLEPEDFAVYYCQQYGSSLYTFGQGTKLEIKR
B12: mAb15156 (antibody, V domains shown)
VH: QLQLQESGPGLVKSSETLSLTCTVSASITGSTYYWGWIRQPPGKGLEWIGSIYYSGTTYYKASLKSRVTISVDTSKNQFSLKLTSVTVADTAVYYCVSHLLGNYHKYGMDVWGQGTTVTVSS
VL: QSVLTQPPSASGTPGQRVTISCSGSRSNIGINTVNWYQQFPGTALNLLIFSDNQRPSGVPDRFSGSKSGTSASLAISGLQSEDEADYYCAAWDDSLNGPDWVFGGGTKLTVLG
B13: mAb15157 (antibody, V domains shown)
VH: EVQLVESGGALVQPGGSLRLSCAASGFPFTIYAMTWVRQAPGKGLEWVSVITGSGDSTYYADSVKGRFTISRDNSKNTLYLQMNSLRAEDTAVYYCVKTGEGFFYYYYGMDVWGQGTTVTVSS
VL: QSVLTQPPSVSAAPGQKVTISCSGSSSNIGNSYISWYQQLPGTAPKLLIYVNNKRPSGIPDRFSGSKSGTSATLGITGLQTGDEADYYCGTWDSSLSAGVFGSGTKVTVLG
B14: mAb15158 (antibody, V domains shown)
VH: EVQLVESGGGLVQPGGSLRLSCAASGFSFSSNWMSWVRQAPGKGLEWVGNINQDGSEKYYVDSVEGRFTISRDNAKKSLYLQMNSLRAEDTAVYYCARDLGVLWFGDFVDWGQGALVTVSS
VL: DIQMTQSPSSLSASVGDRVTITCRASQAISNSLAWYQQKPGKAPKLLLYAASTLESGVPSRFSGSGSGTDYTLTISSLQPEDFATYYCLQYYGSPRTFGQGTKVEIKR
B15: mAb15159 (antibody, V domains shown)
VH: EVQLVESGGGLVQPGGSLRLSCAASGITVSSNYMTWVRQAPGKGLEWVSLIYSGGSTFYADSVRGRFTISRDNSKNTLYLQMNSLRAEDTAVYYCARDLVVYGMDVWGQGTTVTVSS
VL: DIQLTQSPSSLSASVGDRVTITCRASQGISSYLAWYQQKPGKAPKLLIYAASTLQSGVPSRFSGSGSGTDFTLTISSLQPEDFATYYCQHLNSDPHTFGQGTKLEIKR
B16: mAb15160 (antibody, V domains shown)
VH: EVQLVESGGGLVQPGGSLRLSCSASGFTFSRYAMYWVRQAPGKGLEYVSAISSDGGSTYDADSVKGRFTISRANSKNTLYLQMSSLRAEDTAVYYCVKGLRELLYYYYGMDVWGQGTTVTVSS
VL: DIQMTQSPSSLSASVGDRVTITCRAGQSISSFLNWYQQKPGKAPKLLIYAASSLQSGVPSRFSGSGSGTDFTLTISSLQPEDFATYYCQQSYITPFTFGPGTKVDIKR
B17: mAb15161 (antibody, V domains shown)
VH: EVQLVESGGGLVQPGGSLRLSCAASGFTFSSYEMNWVRQAPGKGLEWVSYISSSGSILYYADSVKGRFTASRDNAKNSLYLQMNSLRAEDTGVYYCARREYQLLRPFEFWGQGTLVTVSS
VL: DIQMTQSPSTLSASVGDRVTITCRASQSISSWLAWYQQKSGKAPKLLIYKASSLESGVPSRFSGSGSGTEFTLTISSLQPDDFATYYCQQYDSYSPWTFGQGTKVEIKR
B18: mAb15162 (antibody, V domains shown)
VH: EVQLVETGGGLIQPGGSLRLSCAASEFIVSRNYMSWVRQAPGKGLEWVSLIYSGGSTYYADSVKGRFTISRDNSKNILYLQMNSLRAEDTAVYYCARDRGGISDYWGQGTLVTVSS
VL: DIQMTQSPSSLSASVGDRVTITCQASQDINKYLNWFQQKPGKAPKLLIYDASNLETGVPSRFSGSGSGTDFTFTISSLQPEDIATYYCQQYDNLPRTFGQGTKLEIKR

Biological target: T1, SARS-COV-2 RBD-MMH (SARS-COV-2 RBD extracellular domain with C-terminal myc-myc-hexahistidine tag) (SARS-CoV-2)
Assay: not given

Binder | koff | t½ at pH 6.0 | t½ at pH 7.4
B1 | 0.00985 s⁻¹ | 1.2 min | 0.9 min
B2 | 0.002 s⁻¹ | 5.8 min | 6.9 min
B3 | 0.000574 s⁻¹ | 20.1 min | 18.5 min
B4 | 0.0144 s⁻¹ | 0.8 min | 0.4 min
B5 | 0.00999 s⁻¹ | 1.2 min | 1.2 min
B6 | 0.00272 s⁻¹ | 4.2 min | 6.2 min
B7 | 0.00141 s⁻¹ and 0.00178 s⁻¹ | 6.5 min | 8.2 min
B8 | 0.000565 s⁻¹ | 20.5 min | 12.6 min
B9 | 0.00177 s⁻¹ | 6.5 min | 13.5 min
B10 | 0.00251 s⁻¹ and 0.0041 s⁻¹ | 2.8 min | 4.6 min
B11 | 0.000946 s⁻¹ | 12.2 min | 11.8 min
B12 | 0.0097 s⁻¹ | 1.2 min | 1.7 min
B13 | 0.00766 s⁻¹ | 1.5 min | 2.9 min
B14 | 0.00029 s⁻¹ | 40.1 min | 37 min
B15 | 0.000412 s⁻¹ | 28.1 min | 50 min
B16 | 0.00283 s⁻¹ | 4.1 min | 5.3 min
B17 | 0.00107 s⁻¹ | 10.8 min | 10.3 min
B18 | 0.00354 s⁻¹ | 3.3 min | 3.9 min

Biological target: SARS-CoV-2 RBD.mmh (Spike amino acids Arg319-Phe541 with C-terminal myc-myc-6-Histidine tag) (SARS-CoV-2, UniProt P0DTC2 319-541)
Assay: not given

Binder | IC50
B1 | 0.502 nM
B2 | 0.373 nM
B3 | 0.367 nM
B4 | 1.7 nM
B5 | 0.641 nM
B6 | 0.378 nM
B7 | 0.254 nM
B8 | 0.244 nM
B9 | 0.134 nM
B10 | 16.4 nM
B11 | 17.2 nM
B12 | 0.269 nM
B13 | 0.357 nM
B14 | 0.309 nM
B15 | 0.156 nM
B16 | 0.204 nM
B17 | 0.584 nM
B18 | 0.756 nM

Biological target: T1, SARS-COV-2 RBD-MMH (SARS-COV-2 RBD …)
Assay: SPR 37C, mAb captured, pH 7.4 vs pH 6.0

Binder | t½ Ratio of pH 7.4 to pH 6.0
B1 | 0.8
B2 | 1.2
B3 | 0.9
B4 | 0.5
B5 | 1
B6 | 1.5
B7 | 1.3
B8 | 0.6
B9 | 2.1
B10 | 1.6
B11 | 1
B12 | 1.4
B13 | 1.9
B14 | 0.9
B15 | 1.8
B16 | 1.3
B17 | 0.9
B18 | 1.2
